Experimental data reported in PMC3401642.

B1: Cyanovirin-N (natural protein)
chain: LGKFSQTCYNSAIQGSVLTSTCERTNGGYNTSSIDLNSVIENVDGSLKWQPSNFIETCRNTQLAGSSELAAECKTRAQQFVSTKINLDDHIANIDGTLKYE

Key:
[1] = biological target: HIV-1 subtype B envelope glycoprotein (Env, gp160) clone CAAN5342.A2 (HIV-1 subtype B)
[2] = biological target: HIV-1 subtype C envelope glycoprotein (Env, gp160) clone CAP63.A9J (HIV-1 subtype C)
[3] = biological target: HIV-1 subtype C envelope glycoprotein (Env, gp160) clone CAP261.cvl93 (HIV-1 subtype C)
[4] = biological target: HIV-1 subtype C envelope glycoprotein (Env, gp160) clone CAP270.cvl44 (HIV-1 subtype C)
[5] = biological target: HIV-1 subtype C envelope glycoprotein (Env, gp160) clone CAP177.cvl96 (HIV-1 subtype C)
[6] = biological target: HIV-1 subtype C envelope glycoprotein (Env, gp160) clone Du151.2 (HIV-1 subtype C)
[7] = biological target: HIV-1 subtype C envelope glycoprotein (Env, gp160) clone CAP63.cvl6GA (HIV-1 subtype C)
[8] = biological target: HIV-1 subtype A envelope glycoprotein (Env) clone Q23.17 (HIV-1 subtype A)
[9] = biological target: HIV-1 subtype C envelope glycoprotein (Env, gp160) clone CAP210.E8J (HIV-1 subtype C)
[10] = biological target: HIV-1 subtype A envelope glycoprotein (Env) clone Q461.e2 (HIV-1 subtype A)
[11] = biological target: HIV-1 subtype A envelope glycoprotein (Env) clone 92RW009 (HIV-1 subtype A)
[12] = biological target: HIV-1 subtype C envelope glycoprotein (Env, gp160) clone COT9.6 (HIV-1 subtype C)
[13] = biological target: HIV-1 subtype B envelope glycoprotein (Env, gp160) clone THRO4156.18 (HIV-1 subtype B)
[14] = biological target: HIV-1 subtype C envelope glycoprotein (Env, gp160) clone COT6.15 (HIV-1 subtype C)
[15] = biological target: HIV-1 subtype A envelope glycoprotein (Env) clone Q168.a2 (HIV-1 subtype A)
[16] = biological target: HIV-1 subtype C envelope glycoprotein (Env, gp160) clone CAP206.08J (HIV-1 subtype C)
[17] = biological target: HIV-1 subtype C Env clone COT9.6 V295N (HIV-1 subtype C)
[18] = biological target: HIV-1 subtype C Env clone Du151.2 V295N (HIV-1 subtype C)
[19] = biological target: HIV-1 subtype C Env clone COT6.15 V295N (HIV-1 subtype C)
[20] = biological target: HIV-1 subtype B envelope glycoprotein (Env, gp160) clone AC10.0.29 (HIV-1 subtype B)
[21] = biological target: HIV-1 subtype C envelope glycoprotein (Env, gp160) clone CAP228.51J (HIV-1 subtype C)
[22] = biological target: HIV-1 subtype B envelope glycoprotein (Env, gp160) clone PVO.4 (HIV-1 subtype B)
[23] = biological target: HIV-1 subtype C envelope glycoprotein (Env, gp160) clone TM7.9 (HIV-1 subtype C)
[24] = biological target: HIV-1 subtype B envelope glycoprotein (Env, gp160) clone WITO4160.33 (HIV-1 subtype B)
[25] = biological target: HIV-1 subtype B envelope glycoprotein (Env, gp160) clone QH0692.42 (HIV-1 subtype B)
[26] = biological target: HIV-1 subtype C envelope glycoprotein (Env, gp160) clone CAP256.F7J (HIV-1 subtype C)
[27] = biological target: HIV-1 subtype C envelope glycoprotein (Env, gp160) clone RP6.6 (HIV-1 subtype C)
[28] = biological target: HIV-1 subtype A envelope glycoprotein (Env) clone Q842.d12 (HIV-1 subtype A)
[29] = biological target: HIV-1 subtype C envelope glycoprotein (Env, gp160) clone CAP45.G3J (HIV-1 subtype C)

| Molecule | IC50 of neutralisation of Env-pseudotyped virus (TZM-bl assay) [1] | IC50 of neutralisation of Env-pseudotyped virus (TZM-bl assay) [2] | IC50 of neutralisation of Env-pseudotyped virus (TZM-bl assay) [3] | IC50 of neutralisation of Env-pseudotyped virus (TZM-bl assay) [4] | IC50 of neutralisation of Env-pseudotyped virus (TZM-bl assay) [5] | IC50 of neutralisation of Env-pseudotyped virus (TZM-bl assay) [6] | IC50 of neutralisation of Env-pseudotyped virus (TZM-bl assay) [7] | IC50 of neutralisation of Env-pseudotyped virus (TZM-bl assay) [8] | IC50 of neutralisation of Env-pseudotyped virus (TZM-bl assay) [9] | IC50 of neutralisation of Env-pseudotyped virus (TZM-bl assay) [10] | IC50 of neutralisation of Env-pseudotyped virus (TZM-bl assay) [11] | IC50 of neutralisation of Env-pseudotyped virus (TZM-bl assay) [12] | IC50 of neutralisation of Env-pseudotyped virus (TZM-bl assay) [13] | IC50 of neutralisation of Env-pseudotyped virus (TZM-bl assay) [14] | IC50 of neutralisation of Env-pseudotyped virus (TZM-bl assay) [15] | IC50 of neutralisation of Env-pseudotyped virus (TZM-bl assay) [16] | IC50 of neutralisation of Env-pseudotyped virus (TZM-bl assay) [17] | IC50 of neutralisation of Env-pseudotyped virus (TZM-bl assay) [18] | IC50 of neutralisation of Env-pseudotyped virus (TZM-bl assay) [19] | IC50 of neutralisation of Env-pseudotyped virus (TZM-bl assay) [20] | other results |
| --- | --- | --- | --- | --- | --- | --- | --- | --- | --- | --- | --- | --- | --- | --- | --- | --- | --- | --- | --- | --- | --- |
| Griffithsin (from UniProt P84801 1-121) (natural protein) | 11.7 nM | 23.2 nM | 4.2 nM | 0.3 nM | 55.9 nM | 1.5 nM | 25.7 nM | 1.9 nM | 0.2 nM | 0.12 nM | 1.8 nM | 1.2 nM | 1.2 nM | 0.4 nM | 3.3 nM | 30.9 nM | 0.06 nM | 0.03 nM | 0.06 nM |  |  |
| Scytovirin (from UniProt P86041 1-95) (natural protein) | 188 nM | 29.8 nM | 6.2 nM | 11.7 nM | 21.8 nM | 27.5 nM | 43.8 nM | 29.8 nM | 33.1 nM | 18.9 nM | 21.8 nM | 57.6 nM | 42.6 nM | 10.8 nM | 9.4 nM | 113 nM | 63 nM | 32.5 nM | 16.1 nM | 24.5 nM | IC50 of neutralisation of Env-pseudotyped virus (TZM-bl assay) [21]: 20.1 nM; IC50 of neutralisation of Env-pseudotyped virus (TZM-bl assay) [22]: 25.2 nM; IC50 of neutralisation of Env-pseudotyped virus (TZM-bl assay) [23]: 12.1 nM; IC50 of neutralisation of Env-pseudotyped virus (TZM-bl assay) [24]: 24.8 nM; IC50 of neutralisation of Env-pseudotyped virus (TZM-bl assay) [25]: 27.3 nM; IC50 of neutralisation of Env-pseudotyped virus (TZM-bl assay) [26]: 6.7 nM; IC50 of neutralisation of Env-pseudotyped virus (TZM-bl assay) [27]: 11.3 nM; IC50 of neutralisation of Env-pseudotyped virus (TZM-bl assay) [28]: 40.9 nM; IC50 of neutralisation of Env-pseudotyped virus (TZM-bl assay) [29]: 16.9 nM |
| B1 | 16.7 nM | 1.8 nM | 1.8 nM |  | 7.5 nM | 2 nM | 3.1 nM | 3 nM | 1.2 nM | 1.2 nM | 1.2 nM | 3.9 nM |  | 0.9 nM | 1.4 nM | 18 nM | 4.4 nM | 1.2 nM | 1.1 nM | 0.3 nM | IC50 of neutralisation of Env-pseudotyped virus (TZM-bl assay) [21]: 3.1 nM; IC50 of neutralisation of Env-pseudotyped virus (TZM-bl assay) [23]: 1.1 nM; IC50 of neutralisation of Env-pseudotyped virus (TZM-bl assay) [24]: 1.5 nM; IC50 of neutralisation of Env-pseudotyped virus (TZM-bl assay) [25]: 2.5 nM; IC50 of neutralisation of Env-pseudotyped virus (TZM-bl assay) [26]: 1.1 nM; IC50 of neutralisation of Env-pseudotyped virus (TZM-bl assay) [27]: 1.1 nM; IC50 of neutralisation of Env-pseudotyped virus (TZM-bl assay) [28]: 2.5 nM |
